According to the supplement of paper PMC10126150:
± gives the standard deviation of the averaged measurements.

Test system: ATP
Experiment: switch fluorescence ratio, 500 uM ATP over buffer (Cy3 cluster intensity, sum of 5 cycles each) (fold (ratio)); higher = stronger signal-on switching upon ATP binding; sequences stand for … in TCGTCGGCAGCGTCAGATGTGTATAAGAGACAGTTTTTTTTTTTTTTTTTTTTTTTTT…TC
Settings: aptamer strand: ATP DNA aptamer (quencher-CACCTGGGGGAGTATTGCGGAGGAAGG + anchor), 100 nM annealed; ATP concentration: 500 uM
Procedure, shortened: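 Values give the fluorescence ratio for each switch-domain sequence, averaged from per-cluster ratios of summed target-cycle to summed buffer-cycle Cy3 intensity. The Cy3-labelled switching-strand clusters sat on a modified Illumina MiSeq flow-cell, were annealed to 100 nM quencher-labelled ATP aptamer, and were imaged in selection buffer, then after 15 min with 500 uM ATP at 22 °C. Five cycles ran with NaOH stripping and re-annealing between them, and clusters outside 100-1000 RFU were excluded.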
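Also: ATP exposure 15 min at 22 °C before imaging.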

| Sequence | switch fluorescence ratio |
| --- | --- |
| GACGTGACAA | 1.168 ± 0.0021 |
| ACATGTGGCA | 1.04 ± 0.018 |
| AAGGGGGGGG | 1.02 ± 0.055 |
| TGGCTGCAGA | 0.972 ± 0.064 |
| GTAGGGCGCG | 1.021 ± 0.0035 |
| GCCACGTCAA | 1.06 ± 0.067 |
| TGGGATCGTC | 0.966 ± 0.042 |
| TGAGTGTGTA | 1.03 ± 0.042 |
| ATAAGTTAGT | 0.989 ± 0.016 |
| CTAAGAGCGC | 1.08 ± 0.064 |
| ATTTGCAGTG | 0.994 ± 0.021 |
| TGATAAATGT | 1.13 ± 0.19 |
| CTGAAATCTG | 0.9971 ± 0.0094 |
| AGTGTAAAGG | 0.991 ± 0.076 |
| AGGCTTGTGC | 1.01 ± 0.081 |
| CGCGCCCCTT | 1.13 ± 0.015 |
| ATACATATTT | 1.035 ± 0.0075 |
| AACAGGTTTT | 1.003 ± 0.0062 |
| TTTTCCGGGG | 1.04 ± 0.045 |
| TGGCGGTATA | 0.993 ± 0.012 |
| TATTGTGAAA | 0.988 ± 0.012 |
| GATTAACGTG | 0.9917 ± 0.0044 |
| GCCTTAGGGT | 1.015 ± 0.0029 |
| GCTGGGTTTC | 0.996 ± 0.02 |
| ATCGTCGGTA | 1.03 ± 0.017 |

| Sequence | switch fluorescence ratio |
| --- | --- |
| TAGCCAAGGG | 0.994 ± 0.053 |
| ATTAGGCAAT | 1.22 ± 0.061 |
| TTTTTCAGTT | 1 ± 0.033 |
| AGTCCTTAAG | 1 ± 0.025 |
| CTGTGCAAGT | 1.47 ± 0.073 |
| CTGGTATAGT | 1.03 ± 0.03 |
| TTATACGGCT | 1.11 ± 0.092 |
| CGGACGGTTG | 1.01 ± 0.042 |
| TGAAGGGGCT | 0.9833 ± 0.0052 |
| GGAATTTAGG | 1 ± 0.015 |
| CCTGGGGTCT | 1.03 ± 0.015 |
| TGAATTTATT | 1 ± 0.015 |
| TGATCGGGGA | 1.028 ± 0.0063 |
| CGGGTTAGTG | 0.992 ± 0.023 |
| AGCACGGGTT | 1.21 ± 0.3 |
| TTTTAAGAAT | 1.005 ± 0.0078 |
| CTAGTGAGTG | 0.984 ± 0.036 |
| TTTCGGGCGC | 1.05 ± 0.047 |
| CCAGGGAGCC | 1.1 ± 0.17 |
| TCTTTGTTTT | 0.991 ± 0.021 |
| GGTTACAGTT | 1.036 ± 0.01 |
| TTTATACAA | 1.018 ± 0.0097 |
| TTTATATTTC | 0.99 ± 0.046 |
| GCACGGAGGG | 1.01 ± 0.023 |
| CGTTTAGACG | 1.09 ± 0.095 |

| Sequence | switch fluorescence ratio |
| --- | --- |
| ATTGATTGTA | 0.995 ± 0.035 |
| GGGTACTAGT | 1.05 ± 0.023 |
| CGGAGAGGCA | 0.974 ± 0.032 |
| CGTTTTGGTG | 0.9914 ± 0.0052 |
| TTTCGTCGGC | 1.048 ± 0.0018 |
| ATAGATGTTG | 0.9812 ± 0.0069 |
| CGCTAATCAG | 1.05 ± 0.043 |
| TGGCGGGGTA | 1.02 ± 0.034 |
| CAACCGTGAG | 1.02 ± 0.017 |
| TCAAAGGGCC | 1.004 ± 0.0073 |
| TCCTTGGGTT | 1.016 ± 0.0099 |
| AATATTCTAG | 0.994 ± 0.019 |
| AGTTATAATT | 1.005 ± 0.0076 |
| AAAAGTAAAG | 0.987 ± 0.033 |
| CATGTGGGTG | 1 ± 0.047 |
| CCAAGTGTAT | 1.02 ± 0.055 |
| TCAAGGGATC | 0.991 ± 0.073 |
| AGTTTGAAGG | 0.9894 ± 0.0073 |
| TTCCGGTTCT | 1.03 ± 0.013 |
| TTGCATTATA | 1.07 ± 0.054 |
| CACTTTACTT | 1.28 ± 0.072 |
| GGCGGTTTGT | 1 ± 0.028 |
| TACGAACTTT | 1.31 ± 0.06 |
| AGAATGTTGC | 0.9482 ± 0.0035 |
| AGATTCATCA | 0.9931 ± 0.0055 |

| Sequence | switch fluorescence ratio |
| --- | --- |
| TTCCTACGAT | 1.42 ± 0.56 |
| GACTTTTCTT | 0.971 ± 0.033 |
| AGGTTACCGC | 1.03 ± 0.048 |
| AAGGGACATT | 1.01 ± 0.012 |
| TACTCATGAA | 1.038 ± 0.0037 |
| CGCTGTTGGT | 0.9997 ± 0.0098 |
| GCCGGGAGTA | 1.004 ± 0.0031 |
| ACAGGGGCGG | 1.008 ± 0.006 |
| AGGAGATAAA | 0.983 ± 0.015 |
| GATAATATAA | 1.02 ± 0.026 |
| TTTTTGGACA | 0.993 ± 0.019 |
| AAGGTGGATG | 0.992 ± 0.021 |
| GATCTCCCCT | 1.38 ± 0.053 |
| AGTTTCCGGA | 0.992 ± 0.016 |
| TAGGGTTGTG | 0.9838 ± 0.0033 |
| TTGGGTATTA | 0.9656 ± 0.0024 |
| TCTTGTGAGT | 0.984 ± 0.012 |
| GGCGGTATAA | 1.01 ± 0.025 |
| TGTCCTAGAG | 1.02 ± 0.024 |
| TTTGGGCAGT | 1 ± 0.017 |
| TTTTCTGACG | 1.03 ± 0.02 |
| TGAGTTTTAG | 0.972 ± 0.031 |
| GACAATGTAC | 4.02 ± 0.16 |
| ATGAGTGGGG | 1.01 ± 0.029 |
| GAGGGGGGAT | 1.01 ± 0.033 |
